Experimental data: US20250188151A1, “C-JUN ANTAGONIST PEPTIDES” (The University of Bath, priority 2022, published 2025)
Bridge positions count the residues as written; N and C are the ends. Ends that are not written are not given here. Peptide text beside a SMILES is read from it.

Key:
[1] = molecular target: cJun bZIP (Homo sapiens, UniProt P05412, S292Y); test: CD spectra and thermal denaturation of peptide/cJun heterodimers; conditions: peptide (5 μM)/c-Jun (5 μM) heterodimer; Table 6
[2] = molecular target: T1, cJun/TRE DNA interaction (Homo sapiens, UniProt P05412, S292Y); test: CD cJun/TRE DNA antagonism (shift of TRE DNA peak at ~281 nm, Hill fit); type: biochemical; conditions: ratio of CD IC50
T1 construct: The same 60 amino acid c-Jun bZIP construct was used for all experiments; His-SUMO (N, cleaved yes); made in house; host or cells: E. coli
Excerpt: Briefly, in TBS the coding region for the essential gene dihydrofolate reductase (DHFR) is mutated to incorporate TRE sites so that introduction of c-Jun to this gene inside E. coli produces a transcriptional block that abrogates cell proliferation. The TRE site-bound c-Jun molecules sterically prevent RNA polymerase transcribing the essential gene and this can only be restored upon introduction of an effective c-Jun/TRE antagonist. Consequently, the survival of a particular cell is controlled by the ability of a peptide library member to remove the c-Jun transcriptional block and therefore to restore DHFR activity. TBS thus facilitates the identification of therapeutically valuable sequences. Further details for the TBS assay are provided in WO2020128015, which is incorporated herein by reference in its entirety. […] The TRE-DNA construct produces a positive CD peak at ˜281 nm, which decreases in intensity upon c-Jun binding. […] This method allows for the calculation of an IC50 value by fitting the titration data to a Hill equation. In some embodiments, the c-Jun antagonist is able to inhibit the DNA-binding activity of c-Jun within 10-fold of the ability of HingeW to inhibit the DNA-binding activity of c-Jun (e.g. the c-Jun antagonist has a reduced ability to inhibit the DNA-binding activity of c-Jun that is within 10-fold of that determined for HingeW). In some embodiments, the c-Jun antagonist is able to inhibit the DNA-binding activity of c-Jun within 9-fold, preferably within 8-fold, more preferably within 7-fold, even more preferably within 6-fold, yet more preferably within 5-fold of the ability of HingeW to inhibit the DNA-binding activity of c-Jun. The ability of the c-Jun antagonist and HingeW to inhibit the DNA-binding activity may be measured using the TBS assay (e.g. by quantifying the number of colonies) or by determining the IC50 using a circular dichroism assay described herein. Optionally, the c-Jun antagonist may have this activity when cross-linked. Methods for cross-linking peptides are described in more detail below.
Therefore, the acidic domain was the initial focus for optimisation. 1 was iteratively truncated (2-6) to investigate the effect on c-Jun binding and c-Jun/TRE DNA antagonism. […] Thermal denaturation experiments were then used to determine the Tm of peptide-c-Jun heterodimers, which was used as an approximate measure of target engagement. CD was also used to investigate the ability of the functional activity of peptides in antagonising the c-Jun/TRE DNA interaction. The TRE-DNA construct used produces a positive CD peak at ˜281 nm (no c-Jun absorbance at this wavelength allows for direct measurement of DNA upon binding) which decreases in intensity upon c-Jun binding. […] This allowed for the calculation of an IC50 value by fitting the titration data to a Hill equation. […] The same 60 amino acid c-Jun bZIP construct was used for all experiments, regardless of antagonist peptide length.

[3] = molecular target: cJun (Homo sapiens, UniProt P05412, S292Y); test: Isothermal titration calorimetry, Example 2 (PEAQ-ITC); type: binding; parameters: The same 60 amino acid c-Jun bZIP construct was used for all experiments; His-SUMO (N, cleaved yes); made in house; host or cells: E. coli; conditions: ITC
Description: 2 μL injections of antagonist peptide at 25-200 μM were injected into the cell containing cJun at 2.5-20 μM. Software was used to record and analyse the heat change upon addition. Control experiments involved the injection of the antagonist peptide sample into the cell containing ITC buffer alone to determine the heat of dilution which was subtracted. The resulting binding data were fit to a one site binding model to extract the enthalpy change of binding (ΔH) and the equilibrium binding constant (KD), from which the free energy change of binding (ΔG) and the entropy change of binding (ΔS) was calculated (Wiseman et al., 1989). Thermodynamic parameters are presented as an average of two independent experiments with errors given as one standard deviation.

[4] = molecular target: T2, cJun bZIP (human, UniProt P05412 252-308, limits assumed); test: cell-based or functional assay
T2 chain: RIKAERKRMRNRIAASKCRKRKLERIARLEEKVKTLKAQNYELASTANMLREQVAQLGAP

[5] = molecular target: T2, cJun bZIP; test: CD thermal denaturation, peptide 5 µM and c-Jun 5 µM
[6] = molecular target: T2, cJun bZIP; test: cell-based or functional assay
[7] = molecular target: T2, cJun bZIP; test: ITC (PEAQ-ITC), peptide injected into cJun, one site model

## CC[C@H](C)[C@H](NC(=O)[C@H](CCC(=O)O)NC(=O)[C@H](CCCCN)NC(=O)[C@H](CCCNC(=N)N)NC(=O)[C@H](CC(C)C)NC(=O)[C@H](C)NC(=O)[C@H](Cc1ccc(O)cc1)NC(=O)[C@H](CC(N)=O)NC(=O)[C@H](CCCNC(=N)N)NC(=O)[C@H](CCC(=O)O)NC(=O)[C@H](CCC(=O)O)NC(=O)[C@H](CC(C)C)NC(=O)[C@H](CCC(N)=O)NC(=O)[C@H](CCC(=O)O)NC(=O)[C@@H](NC(=O)[C@H](CCC(=O)O)NC(=O)[C@H](CCC(=O)O)NC(=O)[C@H](CCC(=O)O)NC(=O)[C@H](CC(C)C)NC(=O)[C@@H](NC(=O)[C@H](CC(=O)O)NC(=O)[C@H](CCC(=O)O)NC(=O)[C@H](CCC(=O)O)NC(=O)[C@@H](NC(=O)[C@@H](NC(=O)[C@H](CC(C)C)NC(C)=O)C(C)C)C(C)C)C(C)C)[C@@H](C)CC)C(=O)N[C@@H](CCC(=O)O)C(=O)N[C@@H](CC(=O)O)C(=O)N[C@@H](CC(C)C)C(=O)N[C@@H](CCC(N)=O)C(=O)N[C@H]1CCCCNC(=O)C[C@@H](C(=O)N[C@@H](CC(C)C)C(N)=O)NC(=O)[C@H](CCC(=O)O)NC(=O)[C@H](CC(C)C)NC(=O)[C@H](CCC(N)=O)NC1=O [Peptide 10] (Ac-LVVEEDVLEEEIEQLEERNYALRKEIEDLQKQLEDL-NH2; lactam 31-35)
[1]
  Tm (° C.): 68.3 ± 0.9 °C
[2]
  fold increase in antagonism relative to the linear counterpart 5: 1.9 fold

## Ac-LARENEELEKEAEELVVEEDVLEEEIEQLEERNYALRKEIEDLQKQLEKL-NH2 [Peptide 2]
[1]
  Tm (° C.): 68.5 ± 1.1 °C
[2]
  fold more effective antagonism than 10: 4 fold
  fold reduction in cJun/TRE antagonism relative to 1: 1.2 fold

## Ac-LEKEAEELVVEEDVLEEEIEQLEERNYALRKEIEDLQKQLEKL-NH2 [Peptide 3]
[1]
  Tm (° C.): 67.9 ± 0.9 °C
[2]
  fold reduction in antagonism relative to 2: 2 fold

## CC[C@H](C)[C@@H]1NC(=O)[C@H](CCC(=O)O)NC(=O)[C@@H](NC(=O)[C@H](CCCNC(=N)N)NC(=O)[C@H](CC(C)C)NC(=O)[C@H](C)NC(=O)[C@H](Cc2ccc(O)cc2)NC(=O)[C@H](CC(N)=O)NC(=O)[C@H](CCCNC(=N)N)NC(=O)[C@H](CCC(=O)O)NC(=O)[C@H](CCC(=O)O)NC(=O)[C@H](CC(C)C)NC(=O)[C@H](CCC(N)=O)NC(=O)[C@H](CCC(=O)O)NC(=O)[C@@H](NC(=O)[C@H](CCC(=O)O)NC(=O)[C@H](CCC(=O)O)NC(=O)[C@H](CCC(=O)O)NC(=O)[C@H](CC(C)C)NC(=O)[C@@H](NC(=O)[C@H](CC(=O)O)NC(=O)[C@H](CCC(=O)O)NC(=O)[C@H](CCC(=O)O)NC(=O)[C@@H](NC(=O)[C@@H](NC(=O)[C@H](CC(C)C)NC(=O)[C@H](CCC(=O)O)NC(=O)[C@H](CCC(=O)O)NC(=O)[C@H](C)NC(=O)[C@H](CCC(=O)O)NC(C)=O)C(C)C)C(C)C)C(C)C)[C@@H](C)CC)CCCCNC(=O)C[C@@H](C(=O)N[C@@H](CC(C)C)C(=O)N[C@@H](CCC(N)=O)C(N)=O)NC(=O)[C@H](CCC(=O)O)NC1=O [Peptide 29] (Ac-EAEELVVEEDVLEEEIEQLEERNYALRKEIEDLQ-NH2; lactam 28-32)
[1]
  Tm (° C.): 57.2 ± 0.4 °C
[2]
  fold reduction in cJun/TRE antagonism relative to 1: 10.4 fold

## Ac-LVVEEDVLEEEIEQLEERNYALRKEIEDLQKQLEKL-NH2 [Peptide 5]
[1]
  Tm (° C.): 62.8 ± 1.0 °C
[2]
  fold better antagonism than 6: 1.7 fold
  fold reduction in antagonism relative to 3: 2.3 fold
  fold reduction in antagonism relative to 4: 1.7 fold
  fold reduction in cJun/TRE antagonism relative to 1: 5.8 fold

## Ac-EAEELVVEEDVLEEEIEQLEERNYALRKEIEDLQKQLEKL-NH2 [Peptide 4]
[3]
  ΔG: -9.68 ± 0.115 kcal/mol
  ΔH: -45.399 ± 1.93 kcal/mol
  −TΔS: 35.73 ± 1.94 kcal/mol
[3]; c-Jun-peptide interaction
  Stoichiometry, n: 0.91 ± 0.04
[1]
  Tm (° C.): 64.1 ± 1.5 °C

B1: HingeW variant peptide 27 (peptide)
peptide: Ac-EAEELVVEEDVLEEEIEQLEEKNKALKDEIEDLY-NH2
modifications: lactam 24-28 (inferred)
notes: Synthetic, NΔ20 CΔ10; also called cyclised form of 26/27
[4]
  fold reduction in antagonism relative to 1: 8.8 fold
[5]
  Tm (° C.) of peptide-c-Jun heterodimer: 52.5 ° C.
[6]
  IC50 CD: 118 µM

## Ac-EAEELVVEEDVLEEEIEQLEERNYALRKEIEDLQKQ-NH2 (Synthetic, NΔ20 CΔ7) [HingeW variant peptide 11]
[4]
  fold reduction in antagonism, 4 to 11: 1.8 fold
[7]
  -TΔS: -2.14 kcal/mol
  Kd: 1.1 µM
  Stoichiometry, n: 0.95
  ΔG: -8.15 kcal/mol
  ΔH: -5.99 kcal/mol
[5]
  Tm (° C.) of peptide-c-Jun heterodimer: 57.1 ° C.
[6]
  IC50 CD: 82.1 µM

B2: HingeW variant peptide 8 (peptide)
peptide: Ac-LVVEEDVLEEEIEQLEEKNKALKDEIEDLQKQLEKLY-NH2
modifications: lactam 20-24 (inferred); also: table prints a different, shorter sequence for 7/8
notes: See peptide 7; also called cyclised form of 7/8
[4]
  fold increase in antagonism relative to 5: 1.8 fold
[5]
  Tm (° C.) of peptide-c-Jun heterodimer: 67.2 ° C.
[6]
  IC50 CD: 73.5 µM

B3: HingeW variant peptide 29 (peptide)
peptide: Ac-EAEELVVEEDVLEEEIEQLEERNYALRKEIEDLQ-NH2
modifications: lactam 28-32 (inferred)
notes: Synthetic, NΔ20 CΔ9; also called cyclised form of 28/29
[4]
  fold reduction in antagonism relative to 1: 10.4 fold
[5]
  Tm (° C.) of peptide-c-Jun heterodimer: 57.2 ° C.
[6]
  IC50 CD: 140 µM

B4: Peptide 6 (peptide)
peptide: EDVLEEEIEQLEERNYALRKEIEDLQKQLEKLGAP-NH2
notes: NΔ28; also called LZ-only portion of the HingeW molecule
[4]
  fold decrease in antagonism, 5 to 6: 1.7 fold
  fold decrease in cJun/TRE DNA antagonism, 1 to 6: 9.7 fold
[5]
  Tm (° C.) of peptide-c-Jun heterodimer: 55.1 ° C.
[6]
  IC50 CD: 130 µM

B5: HingeW variant peptide 10 (peptide)
peptide: Ac-LVVEEDVLEEEIEQLEERNYALRKEIEDLQKQLEDL-NH2
modifications: lactam (positions not given here); also: one i to i+4 K-to-D lactam, places not given here (K24/D28 or K31/D35)
notes: Synthetic, NΔ24 CΔ3; also called cyclised form of 9/10
[4]
  fold increase in antagonism relative to 5: 1.9 fold
[5]
  Tm (° C.) of peptide-c-Jun heterodimer: 68.3 ° C.
[6]
  IC50 CD: 69 µM

## Ac-EAEELVVEEDVLEEEIEQLEERNYALRKEIEDL-NH2 (Synthetic, NΔ20 CΔ10) [HingeW variant peptide 25]
[4]
  fold reduction in antagonism compared to 4: 26.7 fold
  fold reduction in antagonism compared to 11: 14.8 fold
[5]
  Tm (° C.) of peptide-c-Jun heterodimer: 44.8 ° C.
[6]
  IC50 CD: 1210 µM
